Assay results taken from publication PMC10117725, “From an Hsp90 - binding protein to a peptide drug” (microLife, 2022).

Target: T1, Hsp90α (Homo sapiens, UniProt P07900)
T1 construct: purchased Abcam
Format: binding
Details: dot blot, 2 µg blotted on membrane, 20 µg recombinant Hsp90α at 4°C overnight, α-Hsp90α immunodetection
Experimental: Two µg of each peptide was blotted (dot blot) directly on PDV nitrocellulose membrane and blocked with ROTI®Block (Carl Roth, Germany). After washing, the membrane was then incubated with 20 μg of recombinant Hsp90α (Abcam)/Lpl1-his protein at 4°C overnight. In case of interaction studies with Hsp90α, α-Hsp90α (produced in mouse, Abcam) was used as the primary antibody and for interaction studies with Lpl1-his, Anti-6X His tag antibody (also produced in mouse, Sigma-Aldrich, Germany) was used. Alkaline phosphatase conjugated goat-α-mouse IgG (Sigma-Aldrich, Germany) served as the secondary antibody. Detection was done using BCIP®/NBT solution (Sigma, Germany). Lpl1-his was isolated and purified as described in our previous paper (Tribelli et al. [2020]).

B1: Lpl1: model Lpl lipoprotein of S. aureus, parent protein of the peptides (protein)
chain: CGKGNETKEDSKEEQIKKSFAITLDMYPIKNLEDLYDKEGYRDSEFKKGDKGMWTIYTDFAKSNKPGELDDEGMVLNLDRNTRTAKGHYFVTTFYRNGKLPDEKNYKIEMKNNKIILLDEVKDDKLKQKIENFKFFGQYANLKELRKYNNGDVSINENVPSYDVEYKMSNKDEIVKELRSRYNISTEKSPILKMHIDGDLKGSSVGYRKLEIDFSKRENSKLSVIEFLSYKPAKK
modifications: left off: His tag, end not stated, kept
notes: model Lpl lipoprotein of S. aureus, parent protein of the peptides
  Interaction with Hsp90α: Yes
